US9765332B2, “Oligonucleotides and methods for inhibiting or reducing bacterial biofilms” (INSERM (INSTITUT NATIONAL DE LA SANTE ET DE LA RECHERCHE …)
“Also recorded” adds a separate entry of the source.

Key:
csgD mRNA [1] = assay: Native gel retardation assays; assay type: binding, Escherichia coli
Excerpt: To generate the various csgD mRNA fragments as well as the sRNA's RydC, DNA templates containing a T7 promoter sequence were generated by PCR using the appropriate primers (Table S2) followed by in vitro transcription using a MEGAscript kit (Ambion) per the manufacturer's protocol. Transcription products were then electrophoresed onto a 6% PAGE containing 8M urea, excised from the gel, then […]. When necessary, purified RNA was dephosphorylated using CIP (New England Biolabs), 5′end-labelled with ATP γ-^32P (PerkinElmer) and T4 polynucleotide kinase (NE Biolabs), then treated with gel purification, passive elution, and ethanol precipitation.
(§1) After denaturation followed by renaturation at room temperature, annealing mixes containing 0.2 pmol csgD mRNA and 1 pmol of labelled primer were incubated for 15 min with or without various concentrations of RydC or Hfq. fMet-tRNA^fMet was then added for 5 min. Reverse transcription was started by adding 2 μL of AMV RT (NE Biolabs) and dNTPs for 15 min, then stopped by adding 10 μL of Buffer II (Ambion). The cDNAs and sequencing reactions were run on polyacrylamide gels, and signals detected using a PhosphorImager. Gel retardation assays are performed as previously described (4). 0.5 pmol of labelled RydC were incubated for 10 min at 37° C. with various concentrations (0-500 pmols) of unlabelled csgD mRNA215, csgD mRNAΔ5′UTR, or csgD mRNA100 in 1×TMN buffer (20 mM Tris-acetate pH 7.6, 100 mM sodium acetate, and 5 mM magnesium acetate). Samples were loaded onto a native 5% acrylamide gel and separated with 0.5×TBE at 4° C. Gels are dried and visualized (PhosphorImager).

csgD mRNA [2] = assay: In vitro translation assays (PURESYSTEM); assay type: biochemical, Escherichia coli; details: csgD mRNA503; for effect of adding Hfq on the translation regulation by the RydC mutant: 2-fold molar excess of Hfq
Protocol: In vitro translation of CsgD mRNA503 (2.5 pmols) using [^35S]-methionine was carried out with a PURESYSTEM (Cosmo Bio) following the manufacturer's instructions and as described previously (13). After RNA denaturation for 2 min at 85° C., chilling 2 min on ice, then renaturation for 5 min at 37° C. in TMN 1× buffer, a pre-complex between RydC and 10 pmol of Hfq was performed during 10 minutes at 37° C. To form the complex with the csgD mRNA, we again incubated for 10 min at 37° C. then translation assays were initiated by adding [^35S]-methionine and the PURESYSTEM classic II. Each reaction was denatured in a 1× Laemmli buffer at 95° C. for 5 min, loaded onto a 16% Tris-glycine gel, and visualized on a PhosphorImager.

csgD mRNA215 = assay: Ribosome toeprint assays; assay type: biochemical, Escherichia coli; details: RydC without Hfq (elevated amounts); Hfq without RydC (low amounts)
Protocol: as §1

E. coli [3] = assay: E. coli biofilm formation in the presence of PNAs; assay type: cell-based; details: 20 μM of PNAs
Protocol: The inventors used peptide nucleic acids (PNAs) that hybridize to the CsgD mRNA sequence ranging from nucleic acid at position 128 to nucleic acid at position 151 in SEQ ID NO: 9. In the presence of 20 μM of PNAs corresponding to RydC 1-2tot sequence (SEQ ID NO: 10), E. coli biofilm formation was reduced about 50%.

E. coli [4] = assay: E. coli growth in the presence of PNAs; assay type: cell-based
Hfq = Hfq (Escherichia coli, UniProt P0A6X3 P0A6X3:2-102); assay: EMSA; Hfq binds csgD mRNA215 in absence of RydC; no Kd given; details: tags: His tag implied by Ni2+ column purification, expressed from pTE607 in BL21(DE3); chain copies: 6; nine helices H1-H9
CsgD protein = assay: Western blot with anti-CsgD antibodies during curli formation; assay type: cell-based, Escherichia coli; details: induction of RydC expression; all times during curli synthesis
Excerpt: (§2) Membranes were blocked in TBS containing 5% milk.

[5] = test system: Salmonella enterica (bongori); assay: Curli formation on Congo red plates; assay type: cell-based; details: stimulated RydC expression, 48 hours at 28° C.
[6] = test system: Salmonella enterica (bongori); assay: Microtiter dish biofilm assay (crystal violet), RydC expression from pUC18-rydC; assay type: cell-based; details: increased RydC expression (pUC18-rydC) vs isogenic strain; 48 hours incubation at 28° C.
CsgA protein = details: stimulated RydC expression; YESCA plates, 0-48 hours
Protocol: E. coli K-12 MG1655Z1, S. sonnei and S. enterica strains and their derivatives were used (Table S1). RydC gene disruption and overexpression in E. coli cells were done as previously described (4). The biofilm assays were performed in 96-well polystyrene plates, as previously described (18). E. coli, S. enterica, and S. sonnei cells were grown aerobically under static conditions at 28° C. in half-diluted M9 media supplemented with a 0.4% glucose carbon source. After 48 h growth, planktonic cells were discarded and kept for growth evaluation at OD600 nm. Each well was washed twice with PBS and put into a ‘swimming pool’, pooled with the initial supernatant. Biofilm was developed in plates then dyed with crystal violet for 15 min at room temperature. The biofilm was recovered through application of an 80% absolute ethanol and 20% acetone solution and by pipetting up and down. After 2 further washes in ‘ethanol/acetone’, the number of surface-attached bacteria was estimated from the optical density at 590 nm and divided by the evaluation of growth at 600 nm. Curli expression was monitored for 48 h at 28° C. on Congo red plates (1% Casamino acids, 0.1% yeast extract, 20 μg ml^−1 Congo red and 10 μg ml^−1 Coomassie Brilliant Blue G). […]

CsgB protein = assay: Western blot with anti-CsgB antibodies during curli formation; assay type: cell-based, Escherichia coli; details: promoted RydC expression; after 48 h
Excerpt: as §2

csgD mRNA [7] = assay: Northern blot of csgD mRNA during curli formation; assay type: cell-based, Escherichia coli; details: induced RydC expression; throughout curli synthesis
Escherichia coli [8] = assay: Curli formation on Congo red plates; assay type: cell-based; details: stimulated RydC expression, 48 hours at 28° C.
Escherichia coli [9] = assay: Microtiter dish biofilm assay (crystal violet), RydC expression from pUC18-rydC; assay type: cell-based; details: increased RydC expression (pUC18-rydC) vs isogenic strain; 48 hours incubation at 28° C.
csgBA and csgA mRNA = assay: Northern blot of csgA and csgBA mRNAs during curli formation; assay type: cell-based, Escherichia coli; details: high levels of RydC; after 10 h incubation

Chain of Hfq (P0A6X3 2-102, one chain of several): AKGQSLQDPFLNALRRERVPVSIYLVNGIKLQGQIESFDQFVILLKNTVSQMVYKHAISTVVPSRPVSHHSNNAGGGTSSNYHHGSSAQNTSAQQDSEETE

## Hfq: purified E. coli Hfq RNA-binding protein (RNA chaperone)
csgD mRNA [1]; absence of RydC
  interaction of Hfq with csgD mRNA215: interacts
csgD mRNA [2]; relative to translation without RydC and Hfq
  CsgD translation remaining (down to): 40%
csgD mRNA215
  ribosome loading / translation initiation on csgD mRNA215 (toeprint): prevent csgD mRNA translation initiation

## AACATGATGAAACCCCGC (all peptide nucleic acid (PNA)) [RydC 1-2tot]
E. coli [3]
  reduction of E. coli biofilm formation: about 50%
E. coli [4]
  effect on bacterial growth: reducing E. coli growth

B1: csgD mRNA215 (ssRNA)
RNA: GAUGUAAUCCAUUAGUUUUAUAUUUUACCCAUUUAGGGCUGAUUUAUUACUACACACAGCAGUGCAACAUCUGUCAGUACUUCUGGUGCUUCUAUUUUAGAGGCAGCUGUCAGGUGUGCGAUCAAUAAAAAAAGCGGGGUUUCAUCAUGUUUAAUGAAGUCCAUAGUAUUCAUGGUCAUACAUUAUUGUUGAUCACUAAAUCUUCUUUGCAGGCG
Hfq
  binding result: binds

B2: Escherichia coli RydC small RNA (nucleic acid, listed as Escherichia coli)
chain: CUUCCGAUGUAGACCCGUAUUCUUCGCCUGUACCACGGGUCGGUUUUAGUACAGGCGUUUUCU
modifications: expressed or natural sequence
notes: trans-encoded 64 nt sRNA of enteric bacteria folding as a pseudoknot; expressed from pUC18-rydC or transcribed in vitro
CsgD protein
  reduction of CsgD protein compared to isogenic strain: up to five-fold
[5]
  curli formation: lowered curli formation
[6]
  reduction of biofilm formation: one-half
CsgA protein
  reduction of the quantity of CsgA structural protein compared to wt: up to 2.5 times
CsgB protein
  reduction of CsgB nucleator protein compared to isogenic strain: about two-fold
csgD mRNA [7]
  csgD mRNA steady state levels compared to isogenic strain: half
Escherichia coli [8]
  curli formation: lowered curli formation
csgD mRNA [1]; 31 nts of 5′UTR including TIS plus 69 nts coding sequence
  complex formation with csgD mRNA100: duplex was detected; also recorded: lower than that with mRNA215
csgD mRNA [1]; Hfq 1:1 molar ratio to RydC, one-to-one molar ratio with csgD mRNA215
  ternary complex formation RydC-Hfq-csgD mRNA215: nearly all of the RydC is in the complex
csgD mRNA [1]; absence of Hfq
  molar excess of csgD mRNA215 versus RydC needed for about half of RydC in complex: 1000 -fold molar excess
csgD mRNA [1]; first 115 nts of the csgD mRNA 5′-end, up to 250-fold excess
  complex formation with csgD mRNA115: unable to interact; also recorded: did not interact
csgD mRNA [1]; mRNA lacking the 5′-UTR, starting at G+3
  complex formation with csgD mRNAΔ5′UTR: does not interact
csgD mRNA [1]; no Hfq
  complex formation with csgD mRNA215: duplex was detected
csgD mRNA [2]; without Hfq
  reduction of CsgD translation: 20%
Escherichia coli [9]
  reduction of biofilm formation: about one-third
csgD mRNA215
  ribosome loading / translation initiation on csgD mRNA215 (toeprint): reduced ribosome loading onto the csgD mRNA in a concentration-dependent manner
csgBA and csgA mRNA
  decrease of steady state levels of csgBA and csgA mRNA transcripts: half

B3: Escherichia coli RydC H1 (nucleic acid)
chain: CUUCCGAUGUAGACCCGUAUUCUUCGCCUGUACCUGCCCAGGGUUUUAGUACAGGCGUUUUCUU
modifications: chemistry not given here
csgD mRNA [2]; absence of Hfq
  effect on CsgD translation: increased efficacy and translation blockage

B4: Escherichia coli RydC H2 (nucleic acid)
chain: CUUCCGAUGUACUGGGCAAUUCUUCGCCUGUACCACGGGUCGGUUUUAGUACAGGCGUUUUCUU
modifications: chemistry not given here
csgD mRNA [2]
  effect of adding Hfq on the translation regulation by the RydC mutant: not beneficial

B5: Escherichia coli RydC H3 (nucleic acid)
chain: CUUCCGAUGUACUGGGCAAUUCUUCGCCUGUACCUGCCCAGGGUUUUAGUACAGGCGUUUUCUU
modifications: chemistry not given here
csgD mRNA [2]
  activity for reducing CsgD translation relative to RydCH1: ten-fold
  activity in reducing csgD mRNA translation relative to RydC: only half as active as RydC
  effect of adding Hfq on the translation regulation by the RydC mutant: no effect
